Laboratory results: US20120316325, “DNA APTAMER […] BINDING TO pLDH (PLASMODIUM LACTATE DEHYDROGENASE)” (POSTECH ACADEMY-INDUSTRY FOUNDATION, published 2012)

Assays:
[1] = target: pfLDH (Plasmodium falciparum lactate dehydrogenase) (Plasmodium falciparum, UniProt Q27743 Q27743:1-316); experiment: fluorescence bead assay, same buffer; binding also seen by EMSA; conditions: chain copies: 4 inferred; label: FAM (fluorescence assay); Loop 1, G-C rich stem, Loop 2 (Mfold)
Procedure: A mixture of 16 μg of pvLDH and 10 μL of magnetic beads was incubated for one hour in 100 μL of binding buffer (20 mM Tris, 50 mM NaCl, 5 mM KCl, 5 mM MgCl2, pH 8.0), followed by washing twice with the binding buffer to remove unbound pvLDH. Then, the beads were incubated for one hour with various concentrations of FAM-labeled aptamers. The aptamers which were not reacted with pvLDH were removed by washing.
Only the FAM-labeled ssDNA aptamer which was bound to pvLDH immobilized to the magnetic beads was separated using a magnet and quantitatively analyzed by fluorescence assay (1420 Victor multilabel counter, PerkinElmer, USA). […] Kd values were also determined for pfLDH in the same manner.

[2] = target: T1, pvLDH (Plasmodium vivax lactate dehydrogenase) (Plasmodium vivax, UniProt Q4PRK9 Q4PRK9:1-316)
[3] = target: T1, pvLDH (Plasmodium vivax lactate …); experiment: EMSA; conditions: tags: (His)6-tag, pET28a, E. coli BL21(DE3); chain copies: 4 inferred

Binder	Kd [1]	Kd [2]	binding result [3]
GTTCGATTGGATTGTGCCGGAAGTGCTGGCTCGAAC (ssDNA) [Aptamer #1]	38.7 nM	16.8 nM	–
GTTCGATTGGATTGTGCCGGAGACGCTGGCTCGAAC (ssDNA) [Aptamer #1 loop 2 mutant]	–	–	no binding
GTTCGACCAAATTGTGCCGGAAGTGCTGGCTCGAAC (ssDNA) [Aptamer #1 loop 1 mutant]	–	–	no binding
GAACTCATTGGCTGGAGGCGGCAGTACCGCTTGAGTTC (ssDNA) [Aptamer #2]	49.6 nM	31.7 nM	–
